± gives the uncertainty stated by the source.
Assay: abundance fitness (aPCA) (normalised: wild type 0, dead -1); higher = more abundant; growth selection in yeast, the domain comes from the species named
Details: Homo sapiens

Row | Substance | abundance fitness
1 | DnaJ homolog subfamily B member 1 I48P, P25685 | -0.561 ± 0.1
2 | DnaJ homolog subfamily B member 1 I48Q, P25685 | -0.422 ± 0.12
3 | DnaJ homolog subfamily B member 1 I48R, P25685 | -0.74 ± 0.075
4 | DnaJ homolog subfamily B member 1 I48S, P25685 | -0.387 ± 0.074
5 | DnaJ homolog subfamily B member 1 I48V, P25685 | -0.267 ± 0.089
6 | DnaJ homolog subfamily B member 1 I48W, P25685 | -1 ± 0.11
7 | DnaJ homolog subfamily B member 1 I48Y, P25685 | -0.386 ± 0.2
8 | DnaJ homolog subfamily B member 1 I63A, P25685 | 0.237 ± 0.097
9 | DnaJ homolog subfamily B member 1 I63C, P25685 | -0.083 ± 0.1
10 | DnaJ homolog subfamily B member 1 I63D, P25685 | -0.014 ± 0.21
11 | DnaJ homolog subfamily B member 1 I63E, P25685 | 0.092 ± 0.1
12 | DnaJ homolog subfamily B member 1 I63F, P25685 | -0.212 ± 0.26
13 | DnaJ homolog subfamily B member 1 I63G, P25685 | -0.003 ± 0.089
14 | DnaJ homolog subfamily B member 1 I63H, P25685 | -0.311 ± 0.33
15 | DnaJ homolog subfamily B member 1 I63K, P25685 | -0.019 ± 0.13
16 | DnaJ homolog subfamily B member 1 I63L, P25685 | -0.097 ± 0.082
17 | DnaJ homolog subfamily B member 1 I63M, P25685 | -0.087 ± 0.085
18 | DnaJ homolog subfamily B member 1 I63N, P25685 | -0.012 ± 0.11
19 | DnaJ homolog subfamily B member 1 I63P, P25685 | 0.08 ± 0.11
20 | DnaJ homolog subfamily B member 1 I63Q, P25685 | 0.098 ± 0.074
21 | DnaJ homolog subfamily B member 1 I63R, P25685 | 0.044 ± 0.074
22 | DnaJ homolog subfamily B member 1 I63S, P25685 | 0.108 ± 0.068
23 | DnaJ homolog subfamily B member 1 I63T, P25685 | 0.588 ± 0.081
24 | DnaJ homolog subfamily B member 1 I63V, P25685 | 0.016 ± 0.065
25 | DnaJ homolog subfamily B member 1 I63W, P25685 | -0.277 ± 0.12
26 | DnaJ homolog subfamily B member 1 I63Y, P25685 | -0.236 ± 0.12

Row | Substance | abundance fitness
27 | DnaJ homolog subfamily B member 1 K21A, P25685 | -0.071 ± 0.072
28 | DnaJ homolog subfamily B member 1 K21C, P25685 | -0.089 ± 0.071
29 | DnaJ homolog subfamily B member 1 K21D, P25685 | -0.25 ± 0.12
30 | DnaJ homolog subfamily B member 1 K21E, P25685 | -0.182 ± 0.1
31 | DnaJ homolog subfamily B member 1 K21H, P25685 | 0.006 ± 0.085
32 | DnaJ homolog subfamily B member 1 K21L, P25685 | -0.029 ± 0.051
33 | DnaJ homolog subfamily B member 1 K21P, P25685 | -0.822 ± 0.08
34 | DnaJ homolog subfamily B member 1 K21Q, P25685 | 0.122 ± 0.051
35 | DnaJ homolog subfamily B member 1 K21R, P25685 | -0.126 ± 0.059
36 | DnaJ homolog subfamily B member 1 K21S, P25685 | -0.097 ± 0.051
37 | DnaJ homolog subfamily B member 1 K21T, P25685 | -0.053 ± 0.064
38 | DnaJ homolog subfamily B member 1 K21V, P25685 | -0.078 ± 0.061
39 | DnaJ homolog subfamily B member 1 K21W, P25685 | -0.152 ± 0.072
40 | DnaJ homolog subfamily B member 1 K21Y, P25685 | -0.121 ± 0.088
41 | DnaJ homolog subfamily B member 1 K35A, P25685 | -0.359 ± 0.082
42 | DnaJ homolog subfamily B member 1 K35C, P25685 | -0.46 ± 0.11
43 | DnaJ homolog subfamily B member 1 K35D, P25685 | -0.193 ± 0.13
44 | DnaJ homolog subfamily B member 1 K35E, P25685 | -0.285 ± 0.088
45 | DnaJ homolog subfamily B member 1 K35F, P25685 | -0.614 ± 0.11
46 | DnaJ homolog subfamily B member 1 K35G, P25685 | -0.25 ± 0.083
47 | DnaJ homolog subfamily B member 1 K35H, P25685 | -0.724 ± 0.12
48 | DnaJ homolog subfamily B member 1 K35I, P25685 | -0.504 ± 0.086
49 | DnaJ homolog subfamily B member 1 K35L, P25685 | -0.55 ± 0.071
50 | DnaJ homolog subfamily B member 1 K35M, P25685 | -0.596 ± 0.1
51 | DnaJ homolog subfamily B member 1 K35N, P25685 | -0.742 ± 0.13
52 | DnaJ homolog subfamily B member 1 K35P, P25685 | -0.365 ± 0.1

Row | Substance | abundance fitness
53 | DnaJ homolog subfamily B member 1 K35Q, P25685 | -0.213 ± 0.092
54 | DnaJ homolog subfamily B member 1 K35R, P25685 | 0.034 ± 0.092
55 | DnaJ homolog subfamily B member 1 K35S, P25685 | -0.438 ± 0.064
56 | DnaJ homolog subfamily B member 1 K35T, P25685 | -0.414 ± 0.095
57 | DnaJ homolog subfamily B member 1 K35V, P25685 | -0.396 ± 0.1
58 | DnaJ homolog subfamily B member 1 K35W, P25685 | -0.963 ± 0.095
59 | DnaJ homolog subfamily B member 1 K35Y, P25685 | -0.632 ± 0.13
60 | DnaJ homolog subfamily B member 1 K37C, P25685 | -0.267 ± 0.14
61 | DnaJ homolog subfamily B member 1 K37D, P25685 | -0.27 ± 0.2
62 | DnaJ homolog subfamily B member 1 K37E, P25685 | 0.117 ± 0.22
63 | DnaJ homolog subfamily B member 1 K37F, P25685 | -0.645 ± 0.17
64 | DnaJ homolog subfamily B member 1 K37G, P25685 | -0.319 ± 0.11
65 | DnaJ homolog subfamily B member 1 K37H, P25685 | 0.05 ± 0.13
66 | DnaJ homolog subfamily B member 1 K37I, P25685 | -0.304 ± 0.12
67 | DnaJ homolog subfamily B member 1 K37L, P25685 | -0.286 ± 0.061
68 | DnaJ homolog subfamily B member 1 K37M, P25685 | -0.41 ± 0.18
69 | DnaJ homolog subfamily B member 1 K37P, P25685 | -0.306 ± 0.14
70 | DnaJ homolog subfamily B member 1 K37Q, P25685 | -0.2 ± 0.089
71 | DnaJ homolog subfamily B member 1 K37R, P25685 | -0.115 ± 0.066
72 | DnaJ homolog subfamily B member 1 K37S, P25685 | -0.225 ± 0.065
73 | DnaJ homolog subfamily B member 1 K37T, P25685 | -0.228 ± 0.11
74 | DnaJ homolog subfamily B member 1 K37V, P25685 | -0.356 ± 0.083
75 | DnaJ homolog subfamily B member 1 K37Y, P25685 | -0.277 ± 0.15
76 | DnaJ homolog subfamily B member 1 K44A, P25685 | -0.138 ± 0.092
77 | DnaJ homolog subfamily B member 1 K44C, P25685 | -0.208 ± 0.14
78 | DnaJ homolog subfamily B member 1 K44D, P25685 | -0.356 ± 0.15

Row | Substance | abundance fitness
79 | DnaJ homolog subfamily B member 1 K44E, P25685 | -0.322 ± 0.077
80 | DnaJ homolog subfamily B member 1 K44F, P25685 | -0.298 ± 0.12
81 | DnaJ homolog subfamily B member 1 K44G, P25685 | -0.39 ± 0.062
82 | DnaJ homolog subfamily B member 1 K44H, P25685 | -0.182 ± 0.16
83 | DnaJ homolog subfamily B member 1 K44I, P25685 | -0.279 ± 0.2
84 | DnaJ homolog subfamily B member 1 K44L, P25685 | -0.144 ± 0.051
85 | DnaJ homolog subfamily B member 1 K44M, P25685 | -0.134 ± 0.068
86 | DnaJ homolog subfamily B member 1 K44N, P25685 | -0.204 ± 0.13
87 | DnaJ homolog subfamily B member 1 K44P, P25685 | -0.717 ± 0.096
88 | DnaJ homolog subfamily B member 1 K44Q, P25685 | -0.192 ± 0.16
89 | DnaJ homolog subfamily B member 1 K44R, P25685 | -0.057 ± 0.084
90 | DnaJ homolog subfamily B member 1 K44W, P25685 | -0.315 ± 0.11
91 | DnaJ homolog subfamily B member 1 K44Y, P25685 | -0.268 ± 0.1
92 | DnaJ homolog subfamily B member 1 K46A, P25685 | -0.277 ± 0.35
93 | DnaJ homolog subfamily B member 1 K46G, P25685 | -0.016 ± 0.16
94 | DnaJ homolog subfamily B member 1 K46I, P25685 | -0.116 ± 0.15
95 | DnaJ homolog subfamily B member 1 K46L, P25685 | -0.639 ± 0.43
96 | DnaJ homolog subfamily B member 1 K46T, P25685 | -0.451 ± 0.31
97 | DnaJ homolog subfamily B member 1 K46W, P25685 | -0.175 ± 0.31
98 | DnaJ homolog subfamily B member 1 K60A, P25685 | -0.172 ± 0.093
99 | DnaJ homolog subfamily B member 1 K60C, P25685 | -0.696 ± 0.21
100 | DnaJ homolog subfamily B member 1 K60D, P25685 | -0.442 ± 0.13
101 | DnaJ homolog subfamily B member 1 K60E, P25685 | -0.159 ± 0.14
102 | DnaJ homolog subfamily B member 1 K60G, P25685 | -0.325 ± 0.073
103 | DnaJ homolog subfamily B member 1 K60H, P25685 | -0.171 ± 0.082
